Experimental data taken from patent US20250000989A1 (JIANGSU HENGRUI PHARMACEUTICALS, published 2025).

Key:
[1] = biological target: HER3 (UniProt P21860 20-1342, limits assumed); test: cell-based or functional assay
[2] = biological target: human Claudin18.2 (human); test: cell-based or functional assay

Binder | EC50 (nM), killing effect (CTG) on FaDu++ [1] [nM] | EC50 (nM), killing effect (CTG) on MCF7++++ [1] [nM] | EC50 (nM), killing effect (CTG) on SW620+++ [1] [nM] | EC50 (nM), in vitro killing (CTG cell viability) of cells highly expressing NUGC4-claudin18.2 [2] [nM] | EC50 (nM), in vitro killing (CTG cell viability) of cells lowly expressing NUGC4-claudin18.2 [2] [nM] | EC50 (nM), in vitro killing (CTG cell viability) of cells moderately expressing NUGC4-claudin18.2 [2] [nM]
ADC-20 (antibody, human IgG1, kappa, V domains shown, Asn at position 297 (Eu numbering) carries the remodeled N297 glycan chain from OLS-4, conjugated to the PBD drug linker LD-11; average drug loading y=1.98) VH: QVQLVQSGGGLVQPGRSLRLSCAASGFTFDDYAMHWVRQAPGKGLEWVSGISWNSGSIGYADSVKGRFTISRDNAKNSLYLQMNSLRAEDTALYYCAKEGLPGLDYWGQGTLVTVSS VL: DIQMTQSPSSLSASIGDRATITCRASQHVGTYLNWYQQKPGKTPKLLISGAANLQSGVPSRFSGSGSGTDFTLTISSLQPEDFATYYCQQSYNTPPFSFGQGTKVEIKR | 39.9 | 114 | 29.3 |  |  | 
ADC-22 (antibody, human IgG1, kappa, V domains shown, Asn at position 297 (Eu numbering) carries the remodeled N297 glycan chain from OLS-4, conjugated to the PBD drug linker LD-11; average drug loading y=1.96) VH: EVQLVQSGAEVKKPGASVKVSCKASGYTFTSYWMHWVRQAPGQRLEWMGMIHPNSGSTNYNEKFKGRVTITRDTSASTAYMELSSLRSEDTAVYYCARLKTGNSFDYWGQGTTVTVSS VL: DIVLTQSPDSLAVSLGERATINCKSSQSLLNSGNQKNYLTWYQQKPGQPPKLLIYWASTRESGVPDRFSGSGSGTDFTLTISSLQAEDVAVYYCQNAYTYPFTFGQGTKLEIKR |  |  |  | 2.1 | 11.7 | 9.8
